Here are results for 7 molecules from publication PMC8748766, “The catalytic activity of TCPTP is auto-regulated by its intrinsically disordered tail and activated by Integrin alpha-1” (Nature Communications, 2022).

The target of data set [1] is T1, TCPTP (full-length TCPTP, residues 1-387, TC45 isoform) (human, UniProt P17706-2 1-387).
T1 sequence (looked up): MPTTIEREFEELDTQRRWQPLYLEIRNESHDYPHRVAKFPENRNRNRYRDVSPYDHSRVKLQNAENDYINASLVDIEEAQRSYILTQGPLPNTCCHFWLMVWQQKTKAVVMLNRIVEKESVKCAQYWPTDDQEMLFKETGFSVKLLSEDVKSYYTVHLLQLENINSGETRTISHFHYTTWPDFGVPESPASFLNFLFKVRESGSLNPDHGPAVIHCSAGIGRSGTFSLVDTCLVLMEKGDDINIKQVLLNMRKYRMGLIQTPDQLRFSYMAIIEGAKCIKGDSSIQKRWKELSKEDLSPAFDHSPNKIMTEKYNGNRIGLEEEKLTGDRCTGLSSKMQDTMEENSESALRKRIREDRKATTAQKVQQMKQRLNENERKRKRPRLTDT
The experiment in a line: cell-based or functional assay.

For data set [2], the system named is pEGFR peptide-1, derived from the cytoplasmic tail of EGFR. The experiment in a line: Phosphatase kinetic analysis (Michaelis-Menten) of TCPTP constructs, pEGFR peptide-1 substrate. The note with it: mean ± SE, n = 9 (TCPTPCAT, TCPTP) or 12 (TCPTPC-term, TCPTPL1). Format: biochemical. The procedure:
(§1) The rate of dephosphorylation of TCPTP and TCPTPCAT (residue 1–314) against 2 phosphotyrosine peptides derived from EGFR was monitored either with or without ITGA1 peptide (ITGA1_FCT & ITGA1_TR) in assay buffer (25 mM Hepes pH 7.4, 50 mM NaCl and 1 mM DTT). Lyophilized powder of all synthetic peptides was dissolved in assay buffer without DTT (phosphopeptides, 5 mM; ITGA1 peptides, 2 mM). For the kinetic analysis, the concentration of the enzyme was fixed at 1 nM while the substrate (phosphopeptides) concentration was varied from 2.5 μM to 160 μM in a total reaction volume of 200 μl. Effect of ITGA1 peptide on TCPTP & TCPTPCAT kinetics were assessed in saturated condition by adding an excess amount of ITGA1 peptide to the reaction mixture (ITGA1_TR = 1 μM; ITGA1_FCT = 25 μM). The reaction was incubated at 30 °C for 30 min and stopped by the addition of 30 μl phosphate reagent (phosphate colorimetric assay kit; Bio Vision) following the manufacturer’s instructions. Data were normalized and fitted using a nonlinear curve, and kinetics parameters (KM and kcat) were calculated from the Michaelis-Menten equation using Graph Pad Prism 9.0. All data points in the enzyme kinetics experiment were measured in triplicate, and the experiments were repeated three times.

Data set [3] relates to pEGFR peptide-2, derived from the EGFR's kinase domain activation loop. Nature of the data set: Phosphatase kinetic analysis (Michaelis-Menten) of TCPTP constructs, pEGFR peptide-2 substrate. Format: biochemical. The note with it: mean ± SE, n = 9. The procedure: as §1
Supplementary Table 2: Enzymatic activity assay (Michaelis-Menten analysis); substrate pEGFR peptide-2, derived from the EGFR’s kinase domain activation loop. Calculated kinetic parameter are presented as the mean of nine independent reactions (n=9; mean ± SE). Source data are provided as a Source Data file. kcat (s-1) Km (µM) kcat/Km (µM -1s-1)

Data set [4] deals with T2, TCPTPCAT (TCPTP catalytic domain, residues 1-302) (human, UniProt P17706-2 1-302).
T2 construct: T cell protein tyrosine phosphatase (TCPTP, PTPN2), human, TC45 isoform, catalytic domain residues 1-302, sub-cloned into pRP1B for all NMR experiments; (2H,15N)-labelled where it was the observed species, unlabelled where it was titrated into the labelled tail; also called T-Cell Protein Tyrosine Phosphatase catalytic domain; PTPN2 catalytic domain; source: E. coli BL21 (DE3) RIL, purified …
T2 sequence (looked up): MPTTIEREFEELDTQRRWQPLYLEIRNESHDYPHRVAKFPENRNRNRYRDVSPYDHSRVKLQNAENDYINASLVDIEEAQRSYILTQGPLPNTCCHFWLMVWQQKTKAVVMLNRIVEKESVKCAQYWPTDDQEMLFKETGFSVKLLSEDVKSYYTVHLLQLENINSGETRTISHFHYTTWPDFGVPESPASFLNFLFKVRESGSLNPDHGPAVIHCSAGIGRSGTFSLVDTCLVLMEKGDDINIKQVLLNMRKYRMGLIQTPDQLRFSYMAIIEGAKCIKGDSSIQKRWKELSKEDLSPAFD
The experiment in a line: NMR titration; 15N-labelled tail observed (2D [1H,15N] HSQC, 0.1 mM), unlabelled TCPTPCAT added in increasing amounts (1:0 to 1:20 tail:CAT); NMR buffer 20 mM HEPES pH 6.8, 150 mM NaCl, 0.5 mM TCEP, 90% H2O/10% D2O; 298 K or 283 K. As to conditions: both partners purified.

For the next data set, the target named is T3, TCPTPCAT (Homo sapiens, UniProt P17706).
T3 construct: TCPTP and TCPTPCAT (residue 1–314) against 2 phosphotyrosine peptides derived from EGFR; His6 (N, cleaved yes); made in house; host or cells: E. coli BL21 (DE3) RIL
T3 sequence (P17706 1-314 isoform P17706-2): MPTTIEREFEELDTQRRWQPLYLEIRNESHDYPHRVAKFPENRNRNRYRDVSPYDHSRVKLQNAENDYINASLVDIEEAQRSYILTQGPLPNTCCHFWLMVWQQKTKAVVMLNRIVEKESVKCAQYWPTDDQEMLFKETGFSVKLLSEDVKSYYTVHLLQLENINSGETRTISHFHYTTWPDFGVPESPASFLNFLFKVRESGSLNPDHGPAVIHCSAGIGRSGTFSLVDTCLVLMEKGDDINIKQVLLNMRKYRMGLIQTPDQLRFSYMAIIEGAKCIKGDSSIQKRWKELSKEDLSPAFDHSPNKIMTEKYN
The experiment in a line: NMR titration (2D HSQC/TROSY) binding to TCPTPCAT
The source says: Polymerase chain reaction (PCR) fragments of TCPTP (residues: 1–387) TCPTPCAT (catalytic domain, residues: 1–288, 1–302 or 1–314), TCPTPTail (C-terminal tail, residues: 289–387 or 303–387) were amplified from full-length human TCPTP (TC45 isoform). TCPTP, TCPTPCAT (residues: 1–288, 1–314), and TCPTPTail (residues: 289–387) fragments were cloned into pMCSG7 including a N-terminal His6-tag using ligation-independent cloning. For all NMR experiments, the PCR fragments of TCPTP, TCPTPCAT (residues: 1–302) and TCPTPTail (residue: 303–387) were sub-cloned into pRP1B as previously described.
NMR data were collected on either Bruker NEO 600 MHz or 800 MHz spectrometers equipped with TCI HCN z-gradient cryoprobes at 298 K or 283 K. NMR measurements of TCPTP’s variant construct were recorded using (^1H,^15N)-, (^2H,^15N)-, (^1H,^15N,^13C), or (^2H,^15N,^13C)-labeled protein at a final concentration of 0.6 mM for backbone assignment or 0.1 mM for titration in NMR buffer and 90% H2O/10% D2O. The sequence-specific backbone assignments of TCPTP (residues 1–387), TCPTPCAT (residues 1–302), TCPTPTail (residues 303–387) and other variants were achieved using 3D triple resonance experiments including […], 3D HNCA, 3D HN(CO)CA, 3D HN(CO)CACB, and 3D HNCACB either as HSQC or TROSY variations. All NMR data were processed using TopSpin 4.0.5[44] and analyzed using either CARA (http://www.cara.nmr.ch) and/or CcpNMR[45].

A short description of data set [5]: DiFMUP assay of TCPTP, TCPTPCAT, PTP1B and PTP1BCAT. Format: biochemical. As to conditions: PTP1B (1–400) vs PTP1BCAT (1–321), DiFMUP, n = 6. As for the experimental part:
Activity of TCPTP, TCPTPCAT (residue 1–314) either with or without ITGA1 peptides (ITGA1_TR; 1:50 molar ratio, ITGA1_FCT; 1:1000 molar ratio), PTP1B (residue 1–400) and PTP1BCAT (residue 1–321) were assessed in assay buffer (25 mM Hepes pH 7.4, 50 mM NaCl, and 1 mM DTT). The assay was performed in black polystyrene flat bottom 96-well plate. The concentration of DiFMUP was fixed at 10 μM and protein concentration at 2.5 nM in total reaction volume of 100 μl. The emitted fluorescent signal at 455 nm was continuously recorded for 25 min using a Tecan Infinite M1000 pro microplate reader (Tecan i-control, 2.0.10.0).

[6] abbreviates: pEGFR peptide-2 2.5-160 μM, 1 nM enzyme, pH 7.4, 30 °C 30 min.

Turning to KIGFFKRPLKKKMEK [ITGA1_FCT (ITGA1 full cytoplasmic tail)], in data set [1], the “rate of dephosphorylation (EGFR phosphopeptides, DiFMUP) by TCPTP saturated with excess ITGA1 peptide (ITGA1_FCT 25 μM), against TCPTP alone” value is around 3 fold.

B1: TCPTPCAT: TCPTP catalytic domain, residues 1–288, 1–302 (NMR) or 1–314 (activity, SAXS) (protein, UniProt P17706 1-314, looked up, fragment)
chain: MPTTIEREFEELDTQRRWQPLYLEIRNESHDYPHRVAKFPENRNRNRYRDVSPYDHSRVKLQNAENDYINASLVDIEEAQRSYILTQGPLPNTCCHFWLMVWQQKTKAVVMLNRIVEKESVKCAQYWPTDDQEMLFKETGFSVKLLSEDVKSYYTVHLLQLENINSGETRTISHFHYTTWPDFGVPESPASFLNFLFKVRESGSLNPDHGPAVIHCSAGIGRSGTFSLVDTCLVLMEKGDDINIKQVLLNMRKYRMGLIQTPDQLRFSYMAIIEGAKCIKGDSSIQKRWKELSKEDLSPAFDHSPNKIMTEKYN
modifications: catalytic domain
As for B1, the turnover number (kcat) (usually the maximal rate divided by the concentration of active sites) in data set [2] (pEGFR peptide-1 2.5-160 μM, 1 nM enzyme, 25 mM Hepes pH 7.4, 50 mM NaCl, 1 mM DTT, 30 °C 30 min) was determined as 34.0 ± 0.9 s⁻¹; in data set [3] (setting [6]), 36.3 ± 0.9 s⁻¹. The Michaelis-Menten constant (Km) (in general, the concentration of substrate that gives half-maximal velocity) in data set [2] (pEGFR peptide-1 2.5-160 μM, 1 nM enzyme, pH 7.4, 30 °C 30 min) worked out at 24.8 ± 2 µM; in data set [3] (setting [6]), 34 ± 2.2 µM. Also, the kcat/Km came out at 1.4e+06 ± 100000 M⁻¹ s⁻¹ in data set [2] (pEGFR peptide-1, pH 7.4, 30 °C) and 1.1 ± 0.1 µM -1s-1 in data set [3] (pEGFR peptide-2).

B2: TCPTP_(Tail) (C-terminal tail, residues 303-387) (domain or fragment, human, UniProt P17706-2 303-387, looked up)
chain: HSPNKIMTEKYNGNRIGLEEEKLTGDRCTGLSSKMQDTMEENSESALRKRIREDRKATTAQKVQQMKQRLNENERKRKRPRLTDT
notes: T cell protein tyrosine phosphatase (TCPTP, PTPN2), human, TC45 isoform, C-terminal tail residues 303-387, sub-cloned into pRP1B for all NMR experiments; also called TCPTP C-terminal tail; TCPTP IDR; source: E. coli BL21 (DE3) RIL, purified (His-trap, TEV cleavage, subtraction, heat step 80 °C 10 min, SEC)
For the molecule B2, the binding result in data set [4] was “binds”.

B3: TCPTP_(TailRK) (N373R/E374K/N375R/E376K) (domain or fragment, human, UniProt P17706-2 303-387, looked up)
chain: HSPNKIMTEKYNGNRIGLEEEKLTGDRCTGLSSKMQDTMEENSESALRKRIREDRKATTAQKVQQMKQRLRKRKRKRKRPRLTDT
notes: T cell protein tyrosine phosphatase (TCPTP, PTPN2), human, TC45 isoform, C-terminal tail with 373NENE376 changed to 373RKRK376; 15N-labelled when observed; also called TCPTP_(TaiRK); source: E. coli BL21 (DE3) RIL, purified (His-trap, TEV cleavage, subtraction, heat step 80 °C 10 min, SEC)
For the molecule B3, the binding result in data set [4] is given as “binds”.

B4: TCPTPTailRK: TCPTPTail with N373R/E374K/N375R/E376K (protein)
chain: HSPNKIMTEKYNGNRIGLEEEKLTGDRCTGLSSKMQDTMEENSESALRKRIREDRKATTAQKVQQMKQRLRKRKRKRKRPRLTDT
modifications: left off: His6, end not stated, cleaved
notes: TCPTPTail with N373R/E374K/N375R/E376K
As for B4, in the data set with TCPTPCAT (2D [1H,15N] HSQC, reduction in peak intensities at lower ratio (1:10)), the “NMR titration: interaction strength vs TCPTPTail” value is listed as “tighter interaction”. Besides, the “NMR titration: CSPs in (2H,15N)-labeled TCPTPCAT” value with TCPTPCAT (2D [1H,15N] TROSY, unlabeled ligand added) was “Small, but clear chemical shift perturbations (CSPs) were readily identified”.

As to RPLKKKMEKRPLKKKMEK [ITGA1_TR (ITGA1 tandem repeat; 2x ITGA1_TCT)], the “rate of dephosphorylation (EGFR phosphopeptides, DiFMUP) by TCPTP saturated with excess ITGA1 peptide (ITGA1_TR 1 μM), against TCPTP alone” value in data set [1] is around 3 fold.

B5: PTP1B: PTP1B (residue 1–400) (protein, UniProt P18031 1-400, looked up, fragment)
chain: MEMEKEFEQIDKSGSWAAIYQDIRHEASDFPCRVAKLPKNKNRNRYRDVSPFDHSRIKLHQEDNDYINASLIKMEEAQRSYILTQGPLPNTCGHFWEMVWEQKSRGVVMLNRVMEKGSLKCAQYWPQKEEKEMIFEDTNLKLTLISEDIKSYYTVRQLELENLTTQETREILHFHYTTWPDFGVPESPASFLNFLFKVRESGSLSPEHGPVVVHCSAGIGRSGTFCLADTCLLLMDKRKDPSSVDIKKVLLEMRKFRMGLIQTADQLRFSYLAVIEGAKFIMGDSSVQDQWKELSHEDLEPPPEHIPPPPRPPKRILEPHNGKCREFFPNHQWVKEETQEDKDCPIKEEKGSPLNAAPYGIESMSQDTEVRSRVVGGSLRGAQAASPAKGEPSLPEKDED
Take B5: the “autoregulatory behavior of the C-terminal tail (activity vs catalytic domain)” value in data set [5] is on record as “not observed”.
